Numbering of substitutions follows the chain as printed. Names and notes keep the numbering of the source. Where two headings read alike, the source gives them in different places.
Tests used:
[1] = 1NF azidation with Sav HppD variants from directed evolution (whole E. coli cells); format: biochemical; conditions: OD600=10, 10 mM 1NF, 25 mM NaN3, 2.5 mM Fe2+; for TTN (total turnover): KPi pH 7.4, anaerobic, 24 hours
Protocol: FIGS. 9A-9C is a computational model of the Sav HppD active site, a reaction scheme, and a plot of total turnovers for various Sav HppD variants. […] The computational model was generated from protein database entry 1T47. FIG. 9B provides the azidation reaction scheme for the reaction screened with a high-throughput screening platform. FIG. 9C provides representative variants identified during the directed evolution of Sav HppD. Experiments were performed at analytical scale using suspensions of E. coli expressing Sav HppD variants (OD600=10), 10 mM substrate 1NF, 25 mM NaN3, 2.5 mM Fe^2+ in KPi buffer (pH 7.4) at room temperature under anaerobic conditions for 24 hours.
In a typical experiment, ferrous ammonium sulfate (20 μL, 100 mM in water), sodium azide (20 μL, 1 M in water), and N-fluoroamide substrate (20 μL, 1.5 M in DME) were added to E. coli harboring non-heme iron enzyme variant (400 μL, adjusted to the appropriate OD600) in a 2 mL screw top GC vial in an anaerobic chamber. The vial was capped and shaken at 680 rpm at room temperature for 24 hours. At the end of the reaction, the vial was opened and the reaction was quenched with 6 mL of a hexanes/ethylacetate solution (4:6 v/v) of internal standard 1,2,3-trimethoxybenzene (0.5 mM final concentration). The reaction mixture was transferred to a 15 mL centrifuge tube, vortexed (10 seconds, 3 times), then centrifuged (10,500×g, 5 min) to completely separate the organic and aqueous layers. An aliquot (200-300 μL) of the organic layer was used for product quantification via GCMS and enantioselectivity via chiral HPLC or chiral GC. The total turnover numbers (TTNs) reported are calculated with respect to non-heme iron enzymes expressed in E. coli and represent the total number of turnovers obtained from the catalyst under the stated reaction conditions.
A high-throughput screening (HTS) platform based on copper-catalyzed azide-alkyne cycloaddition (CuAAC) was utilized for Sav HppD variants, and provided reliable quantification of enzymatic azidation products with a coefficient of variation of 9% and a detection limit of 4 μM. With this HTS platform, more than 5,000 clones generated through error-prone PCR or site-saturation mutagenesis were evaluated.

[2] = Azidation reaction condition optimization with Sav HppD Az1 and Az2 (whole E. coli cells); format: biochemical
[3] = Kinetic analyses of 1NF azidation with purified Sav HppD protein variants; format: biochemical
Protocol: Kinetic analyses for wild-type Sav HppD, Az1, and Az2 mediated 1NF azidation were performed in an anaerobic chamber. Ferrous ammonium sulfate (10 μL, 100 mM in water) and sodium azide (10 μL, 1 M in water) were added to a buffer solution containing purified Sav HppD protein variant (20 M, 2.4 mL) and the solution was shaken at 600 rpm for 5 minutes. A 1,2-dimethoxyethane solution of N-fluoroamide substrate 1NF was added to the solution (final concentration ranging from 0.25 mM to 15 mM in reaction solution). An aliquot of 100 μL of the reaction mixture was removed at 3, 6, 9, 12, and 15 minutes and quenched by vortexing with 300 μL 6:4 EtOAc/hexanes solution containing 0.5 mM (final concentration) internal standard 1,2,3-trimethoxybenzene. After centrifugation at 12,000 rpm for 10 mins, an aliquot (200 μL) of the organic layer was taken for GCMS analysis for product quantification.

[4] = Substrate scope of enzymatic azidation of N-fluoroamide substrates (whole E. coli cells); format: biochemical; conditions: across the substrates and conditions tested
Protocol: FIGS. 3A-3C is an illustration with reaction products generated from exemplary substrate compounds. […] Experiments were performed at analytical scale using suspensions of E. coli expressing Sav HppD variants in KPi buffer (pH 7.4) at room temperature under anaerobic conditions for 24 hours. The absolute configuration of enzymatically synthesized azidation product 1N was determined to be S via X-ray crystallography. The absolute configurations of all other azidation products were inferred by analogy. FIG. 3B summarizes a preparative scale synthesis and absolute configuration determination of product 1N. […]
In a typical experiment, ferrous ammonium sulfate (20 μL, 100 mM in water), sodium azide (20 μL, 1 M in water), and N-fluoroamide substrate (20 μL, 1.5 M in DME) were added to E. coli harboring non-heme iron enzyme variant (400 μL, adjusted to the appropriate OD600) in a 2 mL screw top GC vial in an anaerobic chamber. […] An aliquot (200-300 μL) of the organic layer was used for product quantification via GCMS and enantioselectivity via chiral HPLC or chiral GC. The total turnover numbers (TTNs) reported are calculated with respect to non-heme iron enzymes expressed in E. coli and represent the total number of turnovers obtained from the catalyst under the stated reaction conditions. […]

[5] = format: biochemical, E. coli
Protocol: The reactions were performed by adding ferrous ammonium sulfate (10 μL, 100 mM in water), sodium azide (10 μL, 1 M in water), and N-fluoroamide substrate 1NF (10 μL, 400 mM in DME) to E. coli harboring non-heme iron enzymes (400 μL, adjusted to OD600=40) in a 2 mL screw top GC vial. The vial was capped and shaken at 680 rpm at room temperature for 24 hours. At the end of the reaction, the vial was opened and the reaction was quenched with 0.8 mL of a hexanes/ethylacetate solution (4:6 v/v) of internal standard 1,2,3-trimethoxybenzene (0.5 mM final concentration). The reaction mixture was transferred to a 2 mL microcentrifuge tube, vortexed (10 seconds, 3 times), then centrifuged (14,000×g, 5 min) to completely separate the organic and aqueous layers. An aliquot (200-300 μL) of the organic layer was used for product quantification via GCMS and enantioselectivity via chiral HPLC or chiral GC.

[6] = 1NF (10 μL, 800 mM), OD600 = 10
[7] = 1NF (10 μL, 1.5M), Fe^2+ (20 μL, 100 mM), NaN3 (40 μL, 1M), OD600 = 10
[8] = 1NF (20 μL, 1.5M), Fe^2+ (20 μL, 100 mM), NaN3 (40 μL, 1M), OD600 = 10
[9] = 1NF (10 μL, 400 mM), Fe^2+ (10 μL, 100 mM), NaN3 (10 μL, 1M), OD600 = 10
[10] = 1NF (20 μL, 1.5M), Fe^2+ (20 μL, 100 mM), NaN3 (40 μL, 1M), OD600 = 40
[11] = whole E. coli cells OD600=40, 1NF, NaN3, Fe2+, 24 hours

B1: HppD Az1: sextuple mutant Sav HppD V189A F216A P243A N245Q Q255A L367I, SEQ ID NO: 2 (protein)
chain: MTQTTHHTPDTARQADPFPVKGMDAVVFAVGNAKQAAHYYSTAFGMQLVAYSGPENGSRETASYVLTNGSARFVLTSVIKPATPWGHFLADHVAEHGDGVVDLAIEVPDARAAHAYAIEHGARSVAEPYELKDEHGTVVLAAIATYGKTRHTLVDRTGYDGPYLPGYVAAAPIVEPPAHRTFQAIDHCAGNVELGRMNEWVGFYNKVMGFTNMKEAVGDDIATEYSALMSKVVADGTLKVKFAIQEPALAKKKSAIDEYLEFYGGAGVQHIALNTGDIVETVRTMRAAGVQFLDTPDSYYDTLGEWVGDTRVPVDTLRELKILADRDEDGYLLQIFTKPVQDRPTVFFEIIERHGSMGFGKGNFKAIFEAIEREQEKRGNL
For B1, the “1N/1A (ratio of 1N to 1A among products)” value [1] was 15.5, the “1N/1F (ratio of 1N to 1F among products)” value [1] was 53.8 and the “TTN (total turnover)” value [1] was 1340 ± 40. The “TTN (total turnover)” value ([1]; listed as Sav HppD Az1) was 1340, the 1/1A [2, 6] was 18.0 and the 1/1F [2, 6] was 52.0. The TTN [2, 6] was 2480 ± 30, the 1/1A [2, 7] was 19.5 and the 1/1F [2, 7] was 47.0. It also gave a TTN [2, 7] of 3100 ± 60, a 1/1A [2, 8] of 20.0 and a 1/1F [2, 8] of 55.0. For the same molecule, the TTN [2, 8] was 4290 ± 50, the 1/1A ([2]; NaN3 (20 μL, 1M)) was 14.0 and the 1/1F ([2]; NaN3 (20 μL, 1M)) was 52.0. For the same molecule, the TTN ([2]; NaN3 (20 μL, 1M)) was 1550 ± 40, the 1/1A ([2]; OD600 = 10) was 16.4 and the 1/1F ([2]; OD600 = 10) was 48.0. It also gave a TTN ([2]; OD600 = 10) of 1940 ± 20, a 1/1A ([2]; initial conditions) of 15.5 and a 1/1F ([2]; initial conditions) of 54.0. The TTN ([2]; initial conditions) was 1340 ± 40, the “improvement in catalytic efficiency (kcat/KM) compared to the wild-type enzyme” value [3] was “around 2 fold” and the “activity and enantioselectivity” value [4] was “higher activity but lower enantioselectivity than Sav HppD Az2”.

B2: HppD Az2: septuple mutant Sav HppD V189A N191A S230L P243G N245F Q255P L367I, SEQ ID NO: 3 (protein)
chain: B1 chain with N191A, A216F, S230L, A243G, Q245F, A255P
For B2, the “1N/1A (ratio of 1N to 1A among products)” value [1] was 19.3, the “1N/1F (ratio of 1N to 1F among products)” value [1] was 30.6 and the “TTN (total turnover)” value [1] was 490 ± 20. For the same molecule, the “TTN (total turnover)” value ([1]; listed as Sav HppD Az2) was 490, the 1/1A [2, 9] was 19.3 and the 1/1F [2, 9] was 30.6. It also gave a TTN [2, 9] of 490 ± 20, a 1/1A [2, 8] of 7.0 and a 1/1F [2, 8] of 18.0. For the same molecule, the TTN [2, 8] was 260 ± 30, the 1/1A [2, 10] was 21.0 and the 1/1F [2, 10] was 34.0. For the same molecule, the TTN [2, 10] was 1820 ± 50 and the “improvement in catalytic efficiency (kcat/KM) compared to the wild-type enzyme” value [3] was “around 2 fold”.

B3: Sav HppD: (4-hydroxyphenyl)pyruvate dioxygenase from Streptomyces avermitilis, SEQ ID NO: 1, Uniprot Q53586 (protein, listed as Streptomyces sp.)
chain: B1 chain with A189V, A216F, A243P, Q245N, A255Q, I367L
For B3, the “1A % (yield of 1A)” value ([5]; no azide addition) was 6.5%, the “1F % (yield of 1F)” value ([5]; no azide addition) was 2.2% and the “1A % (yield of 1A)” value [5, 11] was 10.0%. For the same molecule, the “1F % (yield of 1F)” value [5, 11] was 3.7%, the “1N % (yield of 1N)” value ([5]; whole E. coli cells OD600=40, 1NF, NaN3, Fe2+, room temperature, 24 hours) was 33.0 ± 2.0% and the “1N/1A (ratio of 1N to 1A among products)” value [1] was 3.0. The “1N/1F (ratio of 1N to 1F among products)” value [1] was 9.0 and the “TTN (total turnover)” value [1] was 250 ± 10.

Reference: US20250263677A1, “BIOCATALYTIC USE OF NONHEME IRON PROTEINS FOR MOLECULAR FUNCTIONALIZATION” (The Johns Hopkins University, priority 2022, published 2025)
